Data reported in patent US20170015742A1 (published 2017).

What was measured:
[1] = biological target: recombinant human PDGF-BB (human, UniProt P01127 82-190); assay: cell-based or functional assay
[2] = biological target: recombinant human VEGF165 (human, UniProt P15692 207-395); assay: cell-based or functional assay
Sequence of recombinant human VEGF165 (P15692 other isoform, or with tags, fused parts or gaps limits assumed): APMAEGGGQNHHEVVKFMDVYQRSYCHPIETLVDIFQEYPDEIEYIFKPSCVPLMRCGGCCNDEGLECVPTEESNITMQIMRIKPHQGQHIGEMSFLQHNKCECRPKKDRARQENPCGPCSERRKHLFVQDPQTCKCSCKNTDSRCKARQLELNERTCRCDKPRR

Sequence of recombinant human PDGF-BB (P01127 82-190 limits assumed): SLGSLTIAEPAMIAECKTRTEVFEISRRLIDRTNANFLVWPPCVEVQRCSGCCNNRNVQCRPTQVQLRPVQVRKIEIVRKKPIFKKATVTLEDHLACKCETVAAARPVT

| Binder | Potency IC50 (nM) NIH-3T3 hPDGF-BB [1] [nM] | Potency IC50 (nM) HMVEC-d hVEGF165 [2] [nM] |
| --- | --- | --- |
| CL-33675_GS_9E10.1 (bispecific antibody, human IgG1, kappa, L234A L235A) heavy: EVTLRESGPALVKPTQTLTLTCTFSGFSLSTYGMGVGWIRQPPGKALEWLANIWWDDDKYYNPSLKNRLTISKDTSKNQVVLTMTNMDPVDTATYYCARIESSGPKYSFDYWGQGTMVTVSSGGGGSGGGGSEIQLVQSGSELKKPGASVKVSCKASGYTFTNYGMYWVKQAPGQGLEYMGWIDTETGRPTYADDFKGRFVFSLDTSVSTAYLQISSLKAEDTAVYFCARWSGDTTGIRGPWFAYWGQGTLVTVSSASTKGPSVFPLAPSSKSTSGGTAALGCLVKDYFPEPVTVSWNSGALTSGVHTFPAVLQSSGLYSLSSVVTVPSSSLGTQTYICNVNHKPSNTKVDKKVEPKSCDKTHTCPPCPAPEAAGGPSVFLFPPKPKDTLMISRTPEVTCVVVDVSHEDPEVKFNWYVDGVEVHNAKTKPREEQYNSTYRVVSVLTVLHQDWLNGKEYKCKVSNKALPAPIEKTISKAKGQPREPQVYTLPPSREEMTKNQVSLTCLVKGFYPSDIAVEWESNGQPENNYKTTPPVLDSDGSFFLYSKLTVDKSRWQQGNVFSCSVMHEALHNAYTQKSLSLSPGK light: EIVLTQSPGTLSLSPGERATLSCRASSGSIWYSFVSWYQQKPGQAPRLLIYADDQRASGIPDRFSGSGSGTDFTLTISRLEPEDFAVYYCQSYGINIDVVFGGGTKVEIKGGSGGGGSGGDIRMTQSPSSLSASVGDRVTIECLASEDIYSDLAWYQQKPGKSPKLLIYNANGLQNGVPSRFSGSGSGTDYSLTISSLQPEDVATYFCQQYNYFPGTFGQGTKLEIKRTVAAPSVFIFPPSDEQLKSGTASVVCLLNNFYPREAKVQWKVDNALQSGNSQESVTEQDSKDSTYSLSSTLTLSKADYEKHKVYACEVTHQGLSSPVTKSFNRGEC | 0.031 | 0.064 |
| CL-33675_GS_9E10.6 (bispecific antibody, human IgG1, kappa, L234A L235A) heavy: EVTLRESGPALVKPTQTLTLTCTFSGFSLSTYGMGVGWIRQPPGKALEWLANIWWDDDKYYNPSLKNRLTISKDTSKNQVVLTMTNMDPVDTATYYCARIESSGPKYSFDYWGQGTMVTVSSGGGGSGGGGSEVQLVQSGAEVKKPGSSVKVSCKASGYTFTNYGMYWVRQAPGQGLEWMGWIDTETGRPTYADDFKGRFTFTADKSTSTAYMELSSLRSEDTAVYYCARWSGDTTGIRGPWFAYWGQGTLVTVSSASTKGPSVFPLAPSSKSTSGGTAALGCLVKDYFPEPVTVSWNSGALTSGVHTFPAVLQSSGLYSLSSVVTVPSSSLGTQTYICNVNHKPSNTKVDKKVEPKSCDKTHTCPPCPAPEAAGGPSVFLFPPKPKDTLMISRTPEVTCVVVDVSHEDPEVKFNWYVDGVEVHNAKTKPREEQYNSTYRVVSVLTVLHQDWLNGKEYKCKVSNKALPAPIEKTISKAKGQPREPQVYTLPPSREEMTKNQVSLTCLVKGFYPSDIAVEWESNGQPENNYKTTPPVLDSDGSFFLYSKLTVDKSRWQQGNVFSCSVMHEALHNAYTQKSLSLSPGK light: EIVLTQSPGTLSLSPGERATLSCRASSGSIWYSFVSWYQQKPGQAPRLLIYADDQRASGIPDRFSGSGSGTDFTLTISRLEPEDFAVYYCQSYGINIDVVFGGGTKVEIKGGSGGGGSGGDIRMTQSPSSLSASVGDRVTITCLASEDIYSDLAWYQQKPGKSPKLLIYNANGLQNGVPSRFSGSGSGTDYTLTISSLQPEDVATYFCQQYNYFPGTFGQGTKLEIKRTVAAPSVFIFPPSDEQLKSGTASVVCLLNNFYPREAKVQWKVDNALQSGNSQESVTEQDSKDSTYSLSSTLTLSKADYEKHKVYACEVTHQGLSSPVTKSFNRGEC | 0.037 | 0.082 |
| 1B10.1_GS_3E2.1 (bispecific antibody, human IgG1, kappa, L234A L235A) heavy: EVQLVESGGGLVQPGGSLRLSCAASGFSFSKYDMAWFRQAPGKGLEWVASITTSGVGTYYRDSVKGRFTVSRDNAKSTLYLQMNSLRAEDTAVYYCARGYGAMDAWGQGTTVTVSSGGGGSGGGGSEVQLVQSGAEVKKPGSSVKVSCKASGYTFTESYMYWVKQAPGQGLELIGRIDPEDGSTDYVEKFKNKATLTADKSTSTAYMELSSLRSEDTAVYFCARFGARSYFYPMDAWGQGTTVTVSSASTKGPSVFPLAPSSKSTSGGTAALGCLVKDYFPEPVTVSWNSGALTSGVHTFPAVLQSSGLYSLSSVVTVPSSSLGTQTYICNVNHKPSNTKVDKKVEPKSCDKTHTCPPCPAPEAAGGPSVFLFPPKPKDTLMISRTPEVTCVVVDVSHEDPEVKFNWYVDGVEVHNAKTKPREEQYNSTYRVVSVLTVLHQDWLNGKEYKCKVSNKALPAPIEKTISKAKGQPREPQVYTLPPSREEMTKNQVSLTCLVKGFYPSDIAVEWESNGQPENNYKTTPPVLDSDGSFFLYSKLTVDKSRWQQGNVFSCSVMHEALHNAYTQKSLSLSPGK light: DIQMTQSPSSLSASVGDRVTITCKASQDIDDYLSWYQQKPGKSPKLVIYAATRLADGVPSRFSGSGSGTDYTLTISSLQPEDFATYYCLQSSSTPWTFGGGTKVEIKGGSGGGGSGGETVLTQSPATLSLSPGERATLSCRASESVSTLMHWYQQKPGQQPRLLIYGASNLESGVPARFSGSGSGTDFTLTISSLEPEDFAVYFCQQSWNDPWTFGGGTKVEIKRTVAAPSVFIFPPSDEQLKSGTASVVCLLNNFYPREAKVQWKVDNALQSGNSQESVTEQDSKDSTYSLSSTLTLSKADYEKHKVYACEVTHQGLSSPVTKSFNRGEC | 1.54 | 0.084 |
| 1B10.1_GS_CL-33675 (bispecific antibody, human IgG1, kappa, L234A L235A) heavy: EVQLVESGGGLVQPGGSLRLSCAASGFSFSKYDMAWFRQAPGKGLEWVASITTSGVGTYYRDSVKGRFTVSRDNAKSTLYLQMNSLRAEDTAVYYCARGYGAMDAWGQGTTVTVSSGGGGSGGGGSEVTLRESGPALVKPTQTLTLTCTFSGFSLSTYGMGVGWIRQPPGKALEWLANIWWDDDKYYNPSLKNRLTISKDTSKNQVVLTMTNMDPVDTATYYCARIESSGPKYSFDYWGQGTMVTVSSASTKGPSVFPLAPSSKSTSGGTAALGCLVKDYFPEPVTVSWNSGALTSGVHTFPAVLQSSGLYSLSSVVTVPSSSLGTQTYICNVNHKPSNTKVDKKVEPKSCDKTHTCPPCPAPEAAGGPSVFLFPPKPKDTLMISRTPEVTCVVVDVSHEDPEVKFNWYVDGVEVHNAKTKPREEQYNSTYRVVSVLTVLHQDWLNGKEYKCKVSNKALPAPIEKTISKAKGQPREPQVYTLPPSREEMTKNQVSLTCLVKGFYPSDIAVEWESNGQPENNYKTTPPVLDSDGSFFLYSKLTVDKSRWQQGNVFSCSVMHEALHNAYTQKSLSLSPGK light: DIQMTQSPSSLSASVGDRVTITCKASQDIDDYLSWYQQKPGKSPKLVIYAATRLADGVPSRFSGSGSGTDYTLTISSLQPEDFATYYCLQSSSTPWTFGGGTKVEIKGGSGGGGSGGEIVLTQSPGTLSLSPGERATLSCRASSGSIWYSFVSWYQQKPGQAPRLLIYADDQRASGIPDRFSGSGSGTDFTLTISRLEPEDFAVYYCQSYGINIDVVFGGGTKVEIKRTVAAPSVFIFPPSDEQLKSGTASVVCLLNNFYPREAKVQWKVDNALQSGNSQESVTEQDSKDSTYSLSSTLTLSKADYEKHKVYACEVTHQGLSSPVTKSFNRGEC | 0.037 | 0.05 |
| 1E3.4_GS_CL-33675 (bispecific antibody, human IgG1, kappa, L234A L235A) heavy: EIQLVQSGSELKKPGASVKVSCKASGYPFTNSGMYWVKQAPGQGLEYMGWINTEAGKPTYADDFKGRFVFSLDTSVSTAYLQISSLKAEDTAVYFCARWGYISDNSYGWFDYWGQGTLVTVSSGGGGSGGGGSEVTLRESGPALVKPTQTLTLTCTFSGFSLSTYGMGVGWIRQPPGKALEWLANIWWDDDKYYNPSLKNRLTISKDTSKNQVVLTMTNMDPVDTATYYCARIESSGPKYSFDYWGQGTMVTVSSASTKGPSVFPLAPSSKSTSGGTAALGCLVKDYFPEPVTVSWNSGALTSGVHTFPAVLQSSGLYSLSSVVTVPSSSLGTQTYICNVNHKPSNTKVDKKVEPKSCDKTHTCPPCPAPEAAGGPSVFLFPPKPKDTLMISRTPEVTCVVVDVSHEDPEVKFNWYVDGVEVHNAKTKPREEQYNSTYRVVSVLTVLHQDWLNGKEYKCKVSNKALPAPIEKTISKAKGQPREPQVYTLPPSREEMTKNQVSLTCLVKGFYPSDIAVEWESNGQPENNYKTTPPVLDSDGSFFLYSKLTVDKSRWQQGNVFSCSVMHEALHNAYTQKSLSLSPGK light: ATQLTQSPSSLSASVGDRVTISCRASEGVYSYMHWYQQKPGKQPKLLIYKASNLASGVPSRFSGSGSGTDFTLTISSLQPEDFATYFCHQNWNDPLTFGQGTKLEIKGGSGGGGSGGEIVLTQSPGTLSLSPGERATLSCRASSGSIWYSFVSWYQQKPGQAPRLLIYADDQRASGIPDRFSGSGSGTDFTLTISRLEPEDFAVYYCQSYGINIDVVFGGGTKVEIKRTVAAPSVFIFPPSDEQLKSGTASVVCLLNNFYPREAKVQWKVDNALQSGNSQESVTEQDSKDSTYSLSSTLTLSKADYEKHKVYACEVTHQGLSSPVTKSFNRGEC | 0.037 | 0.067 |
| 1E3.4_GS_9E8.4 (bispecific antibody, human IgG1, kappa, L234A L235A) heavy: EIQLVQSGSELKKPGASVKVSCKASGYPFTNSGMYWVKQAPGQGLEYMGWINTEAGKPTYADDFKGRFVFSLDTSVSTAYLQISSLKAEDTAVYFCARWGYISDNSYGWFDYWGQGTLVTVSSGGGGSGGGGSEVTLRESGPALVKPTQTLTLTCTFSGFSLSTYGMGVGWIRQPPGKALEWLANIWWDDDKYYNPSLKNRLTISKDTSKNQVVLTMTNMDPVDTATYYCARIESIGTTYSFDYWGQGTMVTVSSASTKGPSVFPLAPSSKSTSGGTAALGCLVKDYFPEPVTVSWNSGALTSGVHTFPAVLQSSGLYSLSSVVTVPSSSLGTQTYICNVNHKPSNTKVDKKVEPKSCDKTHTCPPCPAPEAAGGPSVFLFPPKPKDTLMISRTPEVTCVVVDVSHEDPEVKFNWYVDGVEVHNAKTKPREEQYNSTYRVVSVLTVLHQDWLNGKEYKCKVSNKALPAPIEKTISKAKGQPREPQVYTLPPSREEMTKNQVSLTCLVKGFYPSDIAVEWESNGQPENNYKTTPPVLDSDGSFFLYSKLTVDKSRWQQGNVFSCSVMHEALHNAYTQKSLSLSPGK light: ATQLTQSPSSLSASVGDRVTISCRASEGVYSYMHWYQQKPGKQPKLLIYKASNLASGVPSRFSGSGSGTDFTLTISSLQPEDFATYFCHQNWNDPLTFGQGTKLEIKGGSGGGGSGGEFVLTQSPGTLSLSPGERATLSCERSSGDIGDSYVSWYQQKPGQAPRLVIYADDQRPSGIPDRFSGSGSGTDFTLTISRLEPEDFAVYYCQSYDINIDIVFGGGTKVEIKRTVAAPSVFIFPPSDEQLKSGTASVVCLLNNFYPREAKVQWKVDNALQSGNSQESVTEQDSKDSTYSLSSTLTLSKADYEKHKVYACEVTHQGLSSPVTKSFNRGEC | 0.329 | 0.092 |
